The values below come from patent US20230329245A1, “COMPOSITIONS AND METHODS OF USE THEREOF” (Curie Co. Inc., priority 2020, published 2023).

Holding throughout (format): cell-based
The subject of test [1] is P. aeruginosa ATCC 9027. Briefly: MIC determination, P. aeruginosa. The settings on record: CAMHB pH 7.3, 37° C., 18 to 20 hours, duplicate. How it is done:
(§1) A variant form of Streptomyces mobaraensis transglutaminase having the amino acid sequence depicted in SEQ ID NO:6 was prepared by literature methods with a hexa-his-tag to aid in purification (Javitt, et al. (2017) BMC Biotechnol. 17:23). The cells were grown in shake flasks, lysed by homogenization, and the Tgase variant (SEQ ID NO:6) was isolated from the cell debris by centrifugation. The resulting semi-purified enzyme (clarified lysate) were compared on an SDS-PAGE gel, by spectroscopy, and activity for concentration of active enzyme. The Tgase variant (SEQ ID NO:6) was further purified by affinity column on a Ni-IMAC resin prior to MIC assay. Tgase activity was measured in the examples herein using a colorimetric hydroxamate activity assay (Folk and Cole (1965) J Biol Chemistry 240(7):2951-2960). The enzyme was diluted to a working stock concentration of 2 mg/mL in CAMHB or RPMI media (bacterial or fungal media). This was then 2-fold serial diluted ten times in the appropriate media in a 96-well master plate to generate 2× starting concentrations for MIC testing.
(§2) Strains were acquired from the American Type Culture Collection (ATCC) (Manassas, VA) and maintained as −80° C. frozen glycerol stocks: S. aureus ATCC 6538, E. coli ATCC 8739, P. aeruginosa ATCC 9027, C. albicans ATCC 10231, and A. brasiliensis ATCC 16404. B. subtilis BGSC 1A1276 was purchased from the Bacillus Genetic Stock Center (BGSC) (Columbus, OH) and maintained as −80° C. frozen glycerol stock. Cation-adjusted Mueller-Hinton broth (CAMHB) at pH 7.3 was used for testing with bacterial species (unless otherwise noted), while RPMI 1640 media buffered with 0.165 M MOPS at pH 7.0 was used for testing with all fungal species.
For MIC determination, bacterial strains (S. aureus ATCC 6538, E. coli ATCC 8739, P. aeruginosa ATCC 9027) were grown overnight on Tryptic Soy Agar (TSA) plates at 37° C. A few colonies of each strain were collected with a sterile swab and used to make a McFarland 0.5 standard solution (approximately 1×10^8 CFU/mL) in sterile PBS. […]

Test [2] relates to C. albicans ATCC 10231. Briefly: Minimum fungicidal concentration (MFC), C. albicans. The note with it: no colonies recovered on SDA, duplicate, listed as Tgase variant (SEQ ID NO: 6). How it is done: Minimum fungicidal concentration (MFC) was determined by plating 10 microliters of liquid from each MFC test solution on the appropriate agar media for each test strain. The liquid was allowed to air dry in a biosafety cabinet, then the agar plates were incubated under the appropriate conditions: A. brasiliensis and C. albicans were grown on Sabouraud Dextrose Agar (SDA) plates. A. brasiliensis was grown at 25° C. for 5 to 7 days, while C. albicans was grown at 37° C. for 24 to 48 hours. Colony formation was then assessed. MFC is defined as the lowest concentration of the Tgase (SEQ ID NO:6) in which no colonies were recovered.

Test [3] has as its system B. subtilis BGSC 1A1276. Briefly: MIC determination, B. subtilis. The settings on record: duplicate, listed as Tgase variant (SEQ ID NO: 6). On the procedure:
as §1
Strains were acquired from the American Type Culture Collection (ATCC) (Manassas, VA) and maintained as −80° C. frozen glycerol stocks: S. aureus ATCC 6538, E. coli ATCC 8739, P. aeruginosa ATCC 9027, C. albicans ATCC 10231, and A. brasiliensis ATCC 16404. […]

The test system of test [4] is B. subtilis BGSC 1A1276. Briefly: Growth reduction of B. subtilis culture (OD600 / BacTiter-Glo). On the procedure: (§3) For MIC determination of bacterial cultures, E. coli ATCC 8739, DH5-alpha, DH10-beta, and B. subtilis BGSC 1A1276 was grown overnight (16-18 hours) in LB broth at 37° C. The following day, the cell density of the saturated cultures was calculated using OD600 and cultures were diluted to 10^4 to 10^6 CFU/mL in sterile LB media to generate the inoculum, and 90 μL of the inoculum was combined with 10 μL of serially diluted Tgase SEQ ID NO:1 at a range of 0.0001-0.01 weight percent in the presence or absence of 0.003% lysozyme (100-fold lower than the effective concentration). Growth curves were measured by OD600 on a BioTek® Synergy Plate Reader. Optionally, the following day, a cell viability assay such as BacTiter-Glo™ (Promega®) following manufacturer's protocols) could be used to assess cell viability. A decrease in OD600 or luminescence indicated a decrease in cell viability. Results are presented as a percent reduction in cell count relative to an untreated culture. All test conditions were performed in triplicate.
Yeast or bacterial starter cultures were grown as described previously. Tgase (SEQ ID NO:6) was added to each culture at 0.001-1 weight percent. The cultures were grown overnight at 30° C.-37° C. and growth curves were measured by a BioTek® Synergy Plate Reader.

Test [5] has as its system E. coli ATCC 8739. Briefly: Growth inhibition of E. coli culture in LB (OD600 / BacTiter-Glo). The settings on record: E. coli ATCC 8739; 950 μg/mL. On the procedure: as §3
E. coli ATCC 8739 was grown overnight in LB broth at 37° C. The following day, the cell density of the saturated cultures was calculated using OD600 and cultures were diluted to 10^4 to 10^6 CFU/mL in sterile LB media to generate the inoculum, and 90 μL of the inoculum was combined with 10 μL of serially diluted Tgase SEQ ID NO:6 at a range of 0.001-0.1 weight percent in the presence or absence of chemical preservatives at concentrations above and below the calculated MIC value. A single concentration (at the MIC) of the chemical preservative and static concentrations of Tgase SEQ ID NO:6 (400 μg/mL, 0.04% w/v) are presented in Table 8 as representative examples. Growth curves were measured by OD600 on a BioTek® Synergy Plate Reader and a cell viability assay (BacTiter-Glo™, Promega®, following manufacturer's protocols) was used to assess cell viability. A decrease in OD600 or luminescence indicated a decrease in cell viability. Results are presented as a percent reduction in cell count relative to an untreated culture. […]

For test [6], the system named is E. coli ATCC 8739. Description: MIC determination, E. coli. The settings on record: CAMHB pH 7.3, 37° C., 18 to 20 hours, duplicate. How it is done:
as §1, §2
For MIC determination, bacterial strains (S. aureus ATCC 6538, E. coli ATCC 8739, P. aeruginosa ATCC 9027) were grown overnight on Tryptic Soy Agar (TSA) plates at 37° C. A few colonies of each strain were collected with a sterile swab and used to make a McFarland 0.5 standard solution (approximately 1×10^8 CFU/mL) in sterile PBS. The McFarland solution was then diluted 1:100 in CAMHB to generate the inoculum, and 50 μL of this inoculum was combined with 50 μL of the 2× test article in a 96-well plate for a final concentration of 1×. All test conditions were performed in duplicate. The bacterial-strain MIC 96-well plates were incubated at 37° C. for 18 to 20 hours. MIC is defined as the lowest concentration of a compound in which no visible growth is observed.

Several values for one entry are separate records, joined by “and”; a condition that tells them apart may be missing. Equal values may be shown once.

B1: Tgase (SEQ ID NO: 6): variant Streptomyces mobaraensis transglutaminase (SEQ ID NO:2) with N-terminal Methionine, C-terminal peptide linker and hexa-His-Tag (protein)
chain: MDPDDRVTPPAEPLDRMPDPYRPSYGRAETVVNNYIRKWQQVYSHRDGRKQQMTEEQREWLSYGCVGVTWVNSGQYPTNRLAFASFDEDRFKNELKNGRPRSGETRAEFEGRVAKESFDEEKGFQRAREVASVMNRALENAHDESAYLDNLKKELANGNDALRNEDARSPFYSALRNTPSFKERNGGNHDPSRMKAVIYSKHFWSGQDRSSSADKRKYGDPDAFRPAPGTGLVDMSRDRNIPRSPTSPGEGFVNFDYGWFGAQTEADADKTVWTHGNHYHAPNGSLGAMHVYESKFRNWSEGYSDFDRGAYVITFIPKSWNTAPDKVKQGWPLEHHHHHH
What is called MIC is the least concentration at which growth counts as inhibited. Higher therefore signals a need for much substance. Broadly, the MFC is the smallest concentration meeting the test's criterion for killing the fungus. Read a low MFC as more potent killing. Take B1: the MIC in test [1] was >1,000 μg/mL; in test [3], 80 µg/mL and 120 µg/mL; in test [6] it was >1,000 μg/mL. In addition, the MFC in test [2] is 31.25 µg/mL and 62.5 µg/mL. In addition, the “Fold improvement in enzyme efficacy” value in test [4] (Tgase (SEQ ID NO: 1) alone = 1) is 12. Also, the “Percent Growth Reduction” value in test [4] (enzyme concentration 80 ug/mL) is 99.77%. Moreover, the growth inhibition in test [5] was 85.0%.
